Test results taken from US20210253709A1 (SUZHOU SMARTNUCLIDE BIOPHARMACEUTICAL, published 2021).

Experiments:
PDL1-Fc fusion protein [1] = target: T1, PDL1-Fc fusion protein (human, UniProt Q9NZQ7 19-238, limits assumed); test: ELISA, plate coated with PDL1-Fc 0.5 ug/well, detection anti-his-HRP, OD405, 4-parameter fit (Plot1; same fit values as in Figure 2)
T1 construct: Transiently expressed in HEK293 and used as the plate coat in the ELISAs; not shown: Fc part
Procedure: (§1) The PDL1-Fc fusion protein was transiently expressed by HEK293 and purified by nickel column affinity chromatography. […] After washing, the anti-his horseradish peroxidase labeled antibody was added and incubated at room temperature for 1 hour. After washing, the developing solution was added, and the absorption value was read at wavelength of 405 nm. Application software SotfMaxPro v5.4 is used for data processing and mapping analysis.

[2] = target: PD-L1 target protein (Biacore ligand) (UniProt Q9NZQ7 19-238, limits assumed); test: SPR (Biacore T200), 25 C, 109 as analyte at 3.125-200 ng/ml
Procedure: The experimental temperature of Biacore was 25° C. and the injection flow rate was 50 μl/min. The analyte was diluted with the HBS-EP+ buffer to a certain concentration, and was allowed to flow through the blank reference channel and the activated channel in turn. The signal value generated on the blank reference channel reflects the non-specific adsorption of the analyte on the chip, and the signal value generated on the activated channel reflects the specific binding between the analyte and the ligand. The analyte was introduced for 300 s, and then the HBS-EP+ buffer was introduced for 180 s to dissociate the analyte from the ligand. […] Different concentrations of analytes are repeatedly introduced and dissociated.

PDL1-Fc fusion protein [3] = target: T1, PDL1-Fc fusion protein; test: ELISA, plate coated with PDL1-Fc 0.5 ug/well, detection anti-his-HRP, OD405, 4-parameter fit (Plot2)
Procedure: as §1

Chain of PD-L1 target protein (Biacore ligand) (Q9NZQ7 19-238 limits assumed): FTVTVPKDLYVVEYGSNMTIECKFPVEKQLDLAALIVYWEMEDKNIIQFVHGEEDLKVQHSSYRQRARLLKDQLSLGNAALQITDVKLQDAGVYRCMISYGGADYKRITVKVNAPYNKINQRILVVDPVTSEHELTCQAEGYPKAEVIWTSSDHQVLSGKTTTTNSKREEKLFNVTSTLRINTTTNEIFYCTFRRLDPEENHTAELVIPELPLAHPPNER
T1 sequence (Q9NZQ7 19-238 limits assumed): as above

B1: 109-chis (VHH)
VHH: QVQLQESGGGSVQAGGSLRLSCTASGFSLDDSDMGWYRQARGNVCQLVSTIASDRSTYYTPSVKGRFTISHDRAKNTIYLQMNSLKPEDTAVYYCAAAPRLAYTTAMTCEGDFAYWGQGTQVTVSS
EC50 (PDL1-Fc fusion protein [1]): 2.89 ng/mL

B2: 109 heavy-chain single domain antibody (VHH)
VHH: QVQLQESGGGSVQAGGSLRLSCTASGFSLDDSDMGWYRQARGNVCQLVSTIASDRSTYYTPSVKGRFTISHDRAKNTIYLQMNSLKPEDTAVYYCAAAPRLAYTTAMTCEGDFAYWGQGTQVTVSS
notes: Untagged form
Kd [2]: 1.73 nM
koff [2]: 0.000438 s⁻¹
kon [2]: 253000 M⁻¹ s⁻¹

B3: ^69,71Ga-NOTA-109-chis (VHH)
VHH: QVQLQESGGGSVQAGGSLRLSCTASGFSLDDSDMGWYRQARGNVCQLVSTIASDRSTYYTPSVKGRFTISHDRAKNTIYLQMNSLKPEDTAVYYCAAAPRLAYTTAMTCEGDFAYWGQGTQVTVSS
modifications: one or two NOTA groups (from p-SCN-Bn-NOTA) conjugated per molecule, each chelating ^69,71Ga; conjugated lysines not assigned
notes: also called chelated products of PD-L1 single domain antibody protein
EC50 (PDL1-Fc fusion protein [3]): 3.62 ng/mL
